# Fewer inactive variants are shown than the library holds.
# B1: TPR 5TU (parent)
# chain: GGAUCUUCUCGAUCUAACAAAAAAGACAAAUCUGCCACAAAGCUUGAGAGCAUCUUCGGAUGCAGAGGCGGCAGCCUUCGGUGGCGCGAUAGCGCCAACGUUCUCAACUAUGACACGCAAAACGCGUGCUCCGUUGAAUGGAGUUUAUCAUG
# Variants of: B1
# Assay: polymerase ribozyme fitness, log enrichment relative to wild type (log ratio); higher = more active; in vitro selection for triplet polymerase activity
# How it was run: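 Genotype fitness is the logarithm of its enrichment divided by wild-type enrichment, using inverse-variance-weighted averages of replicates. That logarithm is base 2. Enrichment was measured by Illumina sequencing of input and output libraries from one triplicate in vitro selection round, with frozen incubation at −7 °C, on PCR-built, transcribed mutant libraries of each subunit of a heterodimeric triplet polymerase ribozyme, retaining genotypes with ≥10 input reads and ≥1 read per output.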
row,Variant,polymerase ribozyme fitness (log ratio)
1,A41U G68U C93U A106G,≤ -4.2
2,U44A G67A U77G U78G C87A C95G,≤ -4.2
3,U44A A49C C93U C123G U130G,≤ -4.2
4,U44A C54U U82G C87A C123U,≤ -4.2
5,U45G A137C,-4.14
6,G46A G86C C118U A122U,-3.45
7,U44G A49U G84A U90G C131U U135G G136A,≤ -4.2
8,A41G G81C U82C,-0.145
9,A41G C76U C93G A106G A122G C129A G141U,≤ -4.2
10,A41C U102A,-1.07
11,G42A A47C U77G G92U,≤ -4.2
12,U45A C85G,-3.95
13,U45G C85G C93U,≤ -4.2
14,C43G A49C C51U G62A G88A A91G C125U A137G,≤ -4.2
15,U44A C51U C76U A106U A110G,≤ -4.2
16,G42C C43U C54U A98G A120G,≤ -4.2
17,C43G G80U G84A C93A U134C,≤ -4.2
18,G46A G50A,-0.957
19,U44A G50A U77A U78A C93G A115C G133A G141A,-4.14
20,U44A U55A C75A G84A C105U,≤ -4.2
21,G46C C93U,-2.47
22,U45A G58A G83A U148C,≤ -4.2
23,A41U G84C C103G,≤ -4.2
24,C43G A60C G62A C96U U102G,≤ -4.2

row,Variant,polymerase ribozyme fitness (log ratio)
1,U44G A120U,≤ -4.2
2,G42U C57A,≤ -4.2
3,G46C U61A C63U U82A A122G,≤ -4.2
4,U44A A52G C85A C118U,≤ -4.2
5,U45A G46C C85G G88C C93U A115C A150G,≤ -4.2
6,G42A A142C,-4.17
7,U45G C116U,0.00932
8,C43G C57A A60U G141C,-4.18
9,G42C C95A C99G A107U,≤ -4.2
10,U44G G70C G83A C116A G152A,≤ -4.2
11,G42C C43A U55G C57U A66C A137C G141C,≤ -4.2
12,A41U G92U,-1.05
13,A41G U45A C54G G92U,-2.74
14,U45G C75G C87A A120C G141C,≤ -4.2
15,A41U U111A,-3.7
16,G46C U53A G92U U111G U134C,≤ -4.2
17,U45G C85U,-0.0479
18,A41U G62C G136U,-3.69
19,G46C U101G A107U A137C,-4.12
20,U45A G50A U55G C87G G94C,≤ -4.2
21,G46A C54A G94C G117A A122U G124A,-3.11
22,U44G G81C C96U C108G,≤ -4.2
23,U44G A73U C85A C99U A142C,≤ -4.2
24,G42A G58C C79A C118U A142U,≤ -4.2

row,Variant,polymerase ribozyme fitness (log ratio)
1,A41G G94C,0.425
2,U45A A52G C118A,-4.18
3,A41U C114A,-4.16
4,U44A U134A,≤ -4.2
5,G46A U82C C95U C125G,-1.73
6,U44A U45A A49C C57U G70A G84U A91U C123G,≤ -4.2
7,C43U C63U A73C U78A G84U U90G C93U A119U A142U,≤ -4.2
8,G46A A52C U139G,-3.91
9,U44A C85G U90C U104G,≤ -4.2
10,U44G G70C G140U,≤ -4.2
11,G46C A110G,≤ -4.2
12,G42A A64G U102G,≤ -4.2
13,A41G A89G G92U G100A G117C G133A G143U,≤ -4.2
14,G42C C51G U56A G83A C105U A122U U148A,≤ -4.2
15,A41G U56A C79U U82G C85U A122G C129A G136U,≤ -4.2
16,C43U G86U C125A,≤ -4.2
17,U45G C57A,0.374
18,C43U U82G U101G,-4.04
19,C43A C69G G92C,≤ -4.2
20,U45G G50A C87A C103U G124A,≤ -4.2
21,U44A C54A U77A G92C C118A A120G G136C G140A,≤ -4.2
22,C43A A115U C118G,≤ -4.2
23,G42A A47C U55A C85U,≤ -4.2
24,U44A G92A C93A G141C,≤ -4.2

row,Variant,polymerase ribozyme fitness (log ratio)
1,C43G C95U C96A,-4.15
2,U44A U56A U61A A97U,≤ -4.2
3,G46A C96U U134G A138G,≤ -4.2
4,A41U C69U C87U,-2.75
5,G42A C96A A122G A138G U145G,≤ -4.2
6,G42A G48A A97G A138U,≤ -4.2
7,G42C U61A G88A C95U U104G,≤ -4.2
8,U44A A73U C105G A120G,≤ -4.2
9,C43G U44A G58A G88U C95U U135G,≤ -4.2
10,A41U A47U C93G,-4.14
11,G42A G50A A66U G88A C96G U139C,≤ -4.2
12,A41C U144C A147U,-0.619
13,U45A C57A C95U,-2.12
14,A41U G80A,-0.78
15,C43A G94C G143U,≤ -4.2
16,G42A G83U A97U,≤ -4.2
17,U44A G84A C85G C95G C99U,-3.94
18,U45A G65A U82A A106U,-0.414
19,U45A G48U G50A G59C G68U C96U C131A A137C G152A,≤ -4.2
20,A41C U56A C87U U135G,≤ -4.2
21,G42C U53A G83C G126U,≤ -4.2
22,A41U G71A G83C G84U U145C A147U,≤ -4.2
23,U44C C54U,-3.56
24,U45G C114U A119U,-2.4

row,Variant,polymerase ribozyme fitness (log ratio)
1,G46U G62A C76A C87U G88A C118U U134A,≤ -4.2
2,U44A C76A A91G,≤ -4.2
3,U44A G68U G92U A98G C99G,≤ -4.2
4,A41U U144G,0.164
5,U45G G94A A137G,-2.23
6,U45A A52G C116G,-3.56
7,A41G C87A A121G C123U G140A U146C C149G,≤ -4.2
8,G46C U77G A142C,≤ -4.2
9,U45A C93U,-3.15
10,G46C C75G G88A C114U,≤ -4.2
11,U45G C79G G83U C85G U102C,≤ -4.2
12,A41G G50C C93G C103U C123A U127C,≤ -4.2
13,U44A A52C,-3.94
14,G42U G59U G92U G126A U135A U144A,≤ -4.2
15,C43A C87U G136C,≤ -4.2
16,C43G G86C A137G,≤ -4.2
17,G42C C54A A64C U77A G83C G126A U145A,≤ -4.2
18,A41U G80A A97U,-1.76
19,U45A A64U G67C G74A G83A A120G,≤ -4.2
20,G42A G100U,≤ -4.2
21,G46A A52C U61G,-0.687
22,G42A C114G G133U A150C,≤ -4.2
23,G42C A52C A64G G80A C96A C108U A110G,≤ -4.2
24,G42A C51U A64C G80A U127A,≤ -4.2

row,Variant,polymerase ribozyme fitness (log ratio)
1,U45C G46A U61G G62C C76A,≤ -4.2
2,C43U G83U A120G,≤ -4.2
3,A41U C51A G86C G88C,≤ -4.2
4,G42C C51U C103G,≤ -4.2
5,G42U A52C C93U,≤ -4.2
6,G42A G71A A91U A97U G100C,≤ -4.2
7,G46C G50C G59U C118U G126C,≤ -4.2
8,U44A G50C,≤ -4.2
9,U44A G46C C87U,≤ -4.2
10,A41G C57U C85U C116U,0.221
11,G42C A60G A113U G140U,-3.85
12,U45A U109C,-3.44
13,G42C A66C,≤ -4.2
14,A41C U53A G92U,-1.22
15,U45A U77G G86U U104A C123A,≤ -4.2
16,G42C A89G G92A G126U G133A,≤ -4.2
17,A41C U55A C93A,-3.32
18,G46U A47C G58U C108U A119U G128U,≤ -4.2
19,G42C U53A C99U,≤ -4.2
20,G42C U55A A60U C87U A115U,≤ -4.2
21,A41U A52G A107U G140U C149A,≤ -4.2
22,G46U A64U C76A C87A G126U,≤ -4.2
23,U44A C93U C99A U111G A138G G152U,-3.36
24,C43G A49C C76A G84A C105G,≤ -4.2

row,Variant,polymerase ribozyme fitness (log ratio)
1,G42A G50A C57U G67C C79U G83U C93U,≤ -4.2
2,U45A G83C,-3.51
3,G42C U148C,≤ -4.2
4,G42A A47C C85G C96G C116A A147U,≤ -4.2
5,C43U U56A A66C C75A C85G,≤ -4.2
6,G42U A60G U139C U148A,-4.08
7,U45A U77G G84U C118U,≤ -4.2
8,C43G A49C G68C C72U A97U,≤ -4.2
9,C43U U78A C85A A115C,≤ -4.2
10,U44A C116G,-4.19
11,A41U C95U A98C,-1.48
12,U45C G84A,-1.08
13,U44G G141A,-4.12
14,A41U U44A G65C C85G G143U,≤ -4.2
15,U45A A52G C63G A64U G70C A89C U101G C116A,≤ -4.2
16,G42A G48U G58U C75G G83A U104G,≤ -4.2
17,A41G U104G C105U A122C,-1.26
18,U45A G83C C105U C131G,≤ -4.2
19,U45G G50A A73C C93U C96U C99A C108A G112C G124U U127G A142G C149G,≤ -4.2
20,G46U C99U,-1.06
21,A41C G143C,-2.56
22,U45A A106G,-1.7
23,A41C U135C,-3.55

# — the RNAGym collection of RNA variant scans (doi:10.1073/pnas.2313332121)
